From article PMC9064986 (2022)
Where a chain is given by its changes, count along the chain named.

T1: BMPRII ECD Q92H (human, UniProt Q13873-1 27-150, Q92H)
T1 sequence: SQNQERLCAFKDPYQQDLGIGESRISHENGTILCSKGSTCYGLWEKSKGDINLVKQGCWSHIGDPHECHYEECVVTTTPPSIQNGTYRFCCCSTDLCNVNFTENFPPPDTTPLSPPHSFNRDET

T2: BMPRII ECD N126S (human, UniProt Q13873-1 27-150, N126S)
T2 sequence: T1 sequence with H66Q, N100S

T3: BMPRII ECD G89W (human, UniProt Q13873-1 27-150, G89W)
T3 sequence: T1 sequence with G63W, H66Q

T4: BMPRII ECD S107P (human, UniProt Q13873-1 27-150, S107P)
T4 sequence: T1 sequence with H66Q, S81P

T5: BMPRII ECD G89E (human, UniProt Q13873-1 27-150, G89E)
T5 sequence: T1 sequence with G63E, H66Q

T6: BMPRII ECD E98K (human, UniProt Q13873-1 27-150, E98K)
T6 sequence: T1 sequence with H66Q, E72K

T7: BMPRII ECD G89A (human, UniProt Q13873-1 27-150, G89A)
T7 sequence: T1 sequence with G63A, H66Q

B1: BMPRII extracellular domain (ECD), wild type (domain or fragment)
chain: T1 sequence with H66Q
B2: BMPRII-Fc (R&D Systems) (Fc fusion)
chain: T1 sequence with H66Q
B3: Recombinant human BMP10 growth factor (GF)-domain (R&D Systems) (ligand)
chain: NAKGNYCKRTPLYIDFKEIGWDSWIIAPPGYEAYECRGVCNYPLAEHLTPTKHAIIQALVHLKNSQKASKACCVPTKLEPISILYLDKGVVTYKFKYEGMAVSECGCR

What was measured:
[1] = molecular target: B3; assay: SPR
[2] = molecular target: B3; assay: SPR
[3] = molecular target: B3; assay: SPR; BMP10 immobilised
[4] = molecular target: B3; assay: SPR; BMP10 immobilised
[5] = molecular target: B2; assay: SPR; BMP10 pre-complexed with ALK1 ECD
[6] = molecular target: T1, BMPRII ECD Q92H; assay: SPR
[7] = molecular target: T2, BMPRII ECD N126S; assay: SPR
[8] = molecular target: T3, BMPRII ECD G89W; assay: SPR
[9] = molecular target: T4, BMPRII ECD S107P; assay: SPR
[10] = molecular target: T5, BMPRII ECD G89E; assay: SPR
[11] = molecular target: T6, BMPRII ECD E98K; assay: SPR
[12] = molecular target: T7, BMPRII ECD G89A; assay: SPR
[13] = molecular target: B2; assay: SPR; BMP10 pre-complexed with ALK1 ECD
[14] = molecular target: BMPRII ECD ΔF1 (human, UniProt Q13873-1 27-150); assay: SPR
[15] = molecular target: BMPRII ECD ΔF3 (human, UniProt Q13873-1 27-150); assay: SPR
[16] = molecular target: B2; assay: SPR; BMPRII-Fc immobilised
[17] = molecular target: B2; assay: SPR; BMPRII-Fc immobilised
[18] = molecular target: T1, BMPRII ECD Q92H; assay: SPR; remark: listed apart in the source
[19] = molecular target: T2, BMPRII ECD N126S; assay: SPR; remark: listed apart in the source
[20] = molecular target: T3, BMPRII ECD G89W; assay: SPR; remark: listed apart in the source
[21] = molecular target: T4, BMPRII ECD S107P; assay: SPR; remark: listed apart in the source
[22] = molecular target: T5, BMPRII ECD G89E; assay: SPR; remark: listed apart in the source
[23] = molecular target: T6, BMPRII ECD E98K; assay: SPR; remark: listed apart in the source
[24] = molecular target: T7, BMPRII ECD G89A; assay: SPR; remark: listed apart in the source

Binder: B1
- Kd [1]: 1190 nM
- koff [2]: 0.161 s⁻¹

Binder: B2
- Kd [3]: 4.47 nM
- koff [4]: 0.000857 s⁻¹

Binder: B3
- Kd [5]: 1.6 nM
- Kd [6]: 1220 nM
- Kd [7]: 1320 nM
- Kd [8]: 237000 nM
- Kd [9]: 328 nM
- Kd [10]: 153000 nM
- Kd [11]: 1070 nM
- Kd [12]: 3190 nM
- koff [13]: 0.00138 s⁻¹
- Kd [14]: 6630 nM
- koff [14]: 0.309 s⁻¹
- Kd [15]: 4170 nM
- koff [15]: 0.49 s⁻¹
- koff [16]: 0.000838 s⁻¹
- Kd [17]: 0.338 nM
- koff [18]: 0.147 s⁻¹
- koff [19]: 0.14 s⁻¹
- koff [20]: 0.433 s⁻¹
- koff [21]: 0.0423 s⁻¹
- koff [22]: 0.609 s⁻¹
- koff [23]: 0.158 s⁻¹
- koff [24]: 0.331 s⁻¹
